This is an account of results in patent publication US20150258192A1, “COMPOSITIONS AND METHODS FOR PREVENTING OR TREATING CHRONIC LUNG ALLOGRAFT DYSFUNCTION (CLAD) AND IDIOPATHIC PULMONARY FIBROSIS (IPF)” (priority 2014, published 2015).

No end group written: not given here.

Experiment in all cases: Kinase Profiling Assay
Common to all, as to format: biochemical
Common to all, as to details: peptide 100 μM

One test has as its target T1, GRK6(h) (Homo sapiens, UniProt P43250).
T1 construct: purchased Millipore
The method in brief:
(§1)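 Specificity of MK2 inhibitory peptides is assessed against a panel of 266 human kinases. Kinase transfers a radiolabeled phosphate from ATP onto a positively charged substrate, which is trapped on a negatively charged filter and quantified by scintillation counting against full-activity control; duplicate determinations.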

The target in another test is T2, MRCKβ(h) (Homo sapiens, UniProt Q9Y5S2).
T2 construct: purchased Millipore
Put shortly: as §1

In another test the target is PKBα(h) (Homo sapiens, UniProt P31749). Put shortly:
as §1

Another test deals with T3, NEK11(h) (Homo sapiens, UniProt Q8NG66).
T3 construct: purchased Millipore
T3 sequence (Q8NG66 1-645): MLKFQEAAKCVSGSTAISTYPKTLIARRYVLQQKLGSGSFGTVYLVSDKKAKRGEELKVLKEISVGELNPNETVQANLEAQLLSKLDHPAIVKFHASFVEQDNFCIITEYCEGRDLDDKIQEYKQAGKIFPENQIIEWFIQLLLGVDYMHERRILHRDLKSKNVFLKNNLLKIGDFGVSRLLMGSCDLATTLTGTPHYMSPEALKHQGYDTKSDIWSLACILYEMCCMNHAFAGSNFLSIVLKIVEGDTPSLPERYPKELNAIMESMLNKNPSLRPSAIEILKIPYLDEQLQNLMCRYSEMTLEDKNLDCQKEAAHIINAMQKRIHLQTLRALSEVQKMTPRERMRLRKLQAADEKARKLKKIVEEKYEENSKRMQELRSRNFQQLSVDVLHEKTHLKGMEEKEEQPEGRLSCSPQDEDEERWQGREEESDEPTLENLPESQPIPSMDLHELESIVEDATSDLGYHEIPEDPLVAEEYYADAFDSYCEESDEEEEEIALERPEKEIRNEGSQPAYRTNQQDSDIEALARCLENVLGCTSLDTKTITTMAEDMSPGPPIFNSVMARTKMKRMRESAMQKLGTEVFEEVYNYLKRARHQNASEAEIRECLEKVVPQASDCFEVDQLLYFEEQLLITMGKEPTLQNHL
The method in brief: as §1

Another test deals with T4, EphA1(h) (Homo sapiens, UniProt P21709).
T4 sequence (P21709 26-976): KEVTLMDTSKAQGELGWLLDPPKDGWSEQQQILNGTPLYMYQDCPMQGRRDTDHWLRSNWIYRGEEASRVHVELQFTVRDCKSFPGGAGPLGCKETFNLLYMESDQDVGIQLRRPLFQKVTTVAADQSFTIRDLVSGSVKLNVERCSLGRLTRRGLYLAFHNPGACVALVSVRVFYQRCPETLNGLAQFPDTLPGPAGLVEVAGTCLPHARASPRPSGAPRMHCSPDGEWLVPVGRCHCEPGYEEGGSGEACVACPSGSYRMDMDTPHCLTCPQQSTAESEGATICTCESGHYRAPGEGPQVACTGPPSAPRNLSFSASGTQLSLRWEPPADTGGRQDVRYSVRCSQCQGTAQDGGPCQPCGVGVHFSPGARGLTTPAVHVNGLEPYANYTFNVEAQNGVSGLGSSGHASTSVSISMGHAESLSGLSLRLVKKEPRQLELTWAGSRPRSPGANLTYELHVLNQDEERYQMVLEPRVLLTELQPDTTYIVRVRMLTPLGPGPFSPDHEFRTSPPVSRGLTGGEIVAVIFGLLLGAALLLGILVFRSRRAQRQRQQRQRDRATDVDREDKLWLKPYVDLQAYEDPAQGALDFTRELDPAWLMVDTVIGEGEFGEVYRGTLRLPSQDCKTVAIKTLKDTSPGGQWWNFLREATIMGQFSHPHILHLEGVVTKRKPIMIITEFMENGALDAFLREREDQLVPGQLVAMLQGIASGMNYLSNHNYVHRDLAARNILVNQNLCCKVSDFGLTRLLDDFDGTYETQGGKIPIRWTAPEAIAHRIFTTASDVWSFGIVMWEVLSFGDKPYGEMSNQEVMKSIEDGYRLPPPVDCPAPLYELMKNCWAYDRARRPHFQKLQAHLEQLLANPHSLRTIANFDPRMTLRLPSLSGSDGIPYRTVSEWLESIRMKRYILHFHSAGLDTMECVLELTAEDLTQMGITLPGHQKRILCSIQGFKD
The method in brief: as §1

A further test addresses T5, ULK3(h) (Homo sapiens, UniProt Q6PHR2).
T5 sequence (Q6PHR2 1-472): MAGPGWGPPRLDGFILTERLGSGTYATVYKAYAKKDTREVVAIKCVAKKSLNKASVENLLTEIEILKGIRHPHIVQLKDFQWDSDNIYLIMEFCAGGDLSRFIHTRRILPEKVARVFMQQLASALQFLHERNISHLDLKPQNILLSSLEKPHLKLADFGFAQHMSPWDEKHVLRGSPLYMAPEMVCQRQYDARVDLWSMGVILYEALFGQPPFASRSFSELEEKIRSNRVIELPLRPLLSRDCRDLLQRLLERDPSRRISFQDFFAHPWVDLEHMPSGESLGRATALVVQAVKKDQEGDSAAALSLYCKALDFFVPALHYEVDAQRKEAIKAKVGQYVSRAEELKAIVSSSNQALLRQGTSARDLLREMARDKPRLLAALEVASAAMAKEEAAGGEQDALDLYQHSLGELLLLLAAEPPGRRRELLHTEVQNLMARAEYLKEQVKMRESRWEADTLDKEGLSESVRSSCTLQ
Put shortly: as §1

Another test deals with T6, MELK(h) (Homo sapiens, UniProt Q14680).
T6 construct: purchased Millipore
The method in brief: as §1

The target in another test is Abl(h) (Homo sapiens, UniProt P00519). Put shortly:
as §1

Another test concerns the target Pim-3(h) (Homo sapiens, UniProt Q86V86). The method in brief: as §1

Sequence of Abl(h) (P00519 whole entry): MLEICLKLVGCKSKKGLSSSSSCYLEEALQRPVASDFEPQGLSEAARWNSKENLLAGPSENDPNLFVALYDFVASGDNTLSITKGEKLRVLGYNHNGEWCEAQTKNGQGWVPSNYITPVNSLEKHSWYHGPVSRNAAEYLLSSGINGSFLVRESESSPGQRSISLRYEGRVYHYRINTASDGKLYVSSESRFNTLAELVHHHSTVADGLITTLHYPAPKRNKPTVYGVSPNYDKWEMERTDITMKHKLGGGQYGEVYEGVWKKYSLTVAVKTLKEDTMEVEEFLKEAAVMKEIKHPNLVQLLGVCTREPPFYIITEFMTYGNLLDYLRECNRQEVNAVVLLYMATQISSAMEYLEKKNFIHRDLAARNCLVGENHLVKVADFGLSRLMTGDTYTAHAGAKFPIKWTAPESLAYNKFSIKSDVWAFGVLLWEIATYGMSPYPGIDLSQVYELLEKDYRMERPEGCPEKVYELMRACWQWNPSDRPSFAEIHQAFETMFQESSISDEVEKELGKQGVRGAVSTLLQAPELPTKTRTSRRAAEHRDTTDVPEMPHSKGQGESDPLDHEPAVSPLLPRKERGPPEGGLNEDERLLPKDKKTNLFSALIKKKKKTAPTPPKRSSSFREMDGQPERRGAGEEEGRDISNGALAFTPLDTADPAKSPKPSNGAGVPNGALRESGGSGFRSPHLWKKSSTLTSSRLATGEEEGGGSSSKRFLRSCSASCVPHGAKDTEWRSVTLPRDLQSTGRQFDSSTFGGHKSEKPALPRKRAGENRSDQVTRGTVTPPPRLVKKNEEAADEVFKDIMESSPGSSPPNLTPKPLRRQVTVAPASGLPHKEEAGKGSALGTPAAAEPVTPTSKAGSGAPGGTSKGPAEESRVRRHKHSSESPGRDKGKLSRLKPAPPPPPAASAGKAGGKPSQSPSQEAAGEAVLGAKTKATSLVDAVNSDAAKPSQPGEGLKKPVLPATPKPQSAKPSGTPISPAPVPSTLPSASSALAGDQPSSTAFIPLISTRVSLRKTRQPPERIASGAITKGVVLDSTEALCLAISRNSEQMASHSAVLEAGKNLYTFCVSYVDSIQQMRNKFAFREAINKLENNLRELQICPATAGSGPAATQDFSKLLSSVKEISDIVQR
Sequence of PKBα(h) (P31749 whole entry): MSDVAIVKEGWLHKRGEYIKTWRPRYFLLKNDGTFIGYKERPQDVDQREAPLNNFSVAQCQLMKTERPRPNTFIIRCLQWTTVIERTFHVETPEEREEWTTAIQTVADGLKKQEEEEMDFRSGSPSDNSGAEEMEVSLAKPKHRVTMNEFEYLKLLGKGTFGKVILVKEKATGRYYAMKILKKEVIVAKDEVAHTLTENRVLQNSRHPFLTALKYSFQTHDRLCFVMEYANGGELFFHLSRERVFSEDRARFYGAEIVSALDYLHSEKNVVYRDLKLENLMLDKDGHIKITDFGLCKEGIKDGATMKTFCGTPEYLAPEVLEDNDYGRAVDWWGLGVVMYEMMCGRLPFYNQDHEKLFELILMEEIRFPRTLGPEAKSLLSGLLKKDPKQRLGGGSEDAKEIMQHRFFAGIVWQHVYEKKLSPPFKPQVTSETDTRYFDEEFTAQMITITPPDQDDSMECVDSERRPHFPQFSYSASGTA
T6 sequence (Q14680 whole entry): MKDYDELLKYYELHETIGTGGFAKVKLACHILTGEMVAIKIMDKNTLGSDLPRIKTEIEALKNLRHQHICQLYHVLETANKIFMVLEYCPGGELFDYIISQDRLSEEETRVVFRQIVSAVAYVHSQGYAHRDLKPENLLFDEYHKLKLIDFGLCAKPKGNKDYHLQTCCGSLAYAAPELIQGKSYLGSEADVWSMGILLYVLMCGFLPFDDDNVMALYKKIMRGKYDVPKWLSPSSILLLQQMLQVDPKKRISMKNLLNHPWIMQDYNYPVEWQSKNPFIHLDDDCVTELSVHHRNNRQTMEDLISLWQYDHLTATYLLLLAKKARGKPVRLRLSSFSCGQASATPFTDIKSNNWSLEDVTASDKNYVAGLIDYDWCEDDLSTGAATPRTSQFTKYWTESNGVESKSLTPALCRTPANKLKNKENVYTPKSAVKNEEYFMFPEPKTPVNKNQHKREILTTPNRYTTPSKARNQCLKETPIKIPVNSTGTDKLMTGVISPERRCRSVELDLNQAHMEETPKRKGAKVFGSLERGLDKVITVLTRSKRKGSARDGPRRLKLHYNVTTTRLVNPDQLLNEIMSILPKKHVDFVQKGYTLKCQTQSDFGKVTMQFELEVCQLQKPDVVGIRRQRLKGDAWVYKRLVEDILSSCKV
T1 sequence (P43250 whole entry): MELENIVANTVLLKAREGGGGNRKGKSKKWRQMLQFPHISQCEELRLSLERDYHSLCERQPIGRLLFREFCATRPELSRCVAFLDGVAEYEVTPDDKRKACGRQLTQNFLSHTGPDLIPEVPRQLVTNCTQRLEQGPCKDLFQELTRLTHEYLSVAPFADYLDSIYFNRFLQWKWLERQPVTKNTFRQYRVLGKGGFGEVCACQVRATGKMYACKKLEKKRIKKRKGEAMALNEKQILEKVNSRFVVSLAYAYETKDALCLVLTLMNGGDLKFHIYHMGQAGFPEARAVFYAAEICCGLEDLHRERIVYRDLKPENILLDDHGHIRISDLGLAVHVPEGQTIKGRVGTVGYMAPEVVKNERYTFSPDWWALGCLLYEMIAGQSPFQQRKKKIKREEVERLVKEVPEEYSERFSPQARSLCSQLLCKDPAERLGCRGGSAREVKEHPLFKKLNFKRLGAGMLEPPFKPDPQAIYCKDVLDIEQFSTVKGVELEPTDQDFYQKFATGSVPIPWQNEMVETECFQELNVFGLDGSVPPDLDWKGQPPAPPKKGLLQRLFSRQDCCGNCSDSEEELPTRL
T2 sequence (Q9Y5S2 whole entry): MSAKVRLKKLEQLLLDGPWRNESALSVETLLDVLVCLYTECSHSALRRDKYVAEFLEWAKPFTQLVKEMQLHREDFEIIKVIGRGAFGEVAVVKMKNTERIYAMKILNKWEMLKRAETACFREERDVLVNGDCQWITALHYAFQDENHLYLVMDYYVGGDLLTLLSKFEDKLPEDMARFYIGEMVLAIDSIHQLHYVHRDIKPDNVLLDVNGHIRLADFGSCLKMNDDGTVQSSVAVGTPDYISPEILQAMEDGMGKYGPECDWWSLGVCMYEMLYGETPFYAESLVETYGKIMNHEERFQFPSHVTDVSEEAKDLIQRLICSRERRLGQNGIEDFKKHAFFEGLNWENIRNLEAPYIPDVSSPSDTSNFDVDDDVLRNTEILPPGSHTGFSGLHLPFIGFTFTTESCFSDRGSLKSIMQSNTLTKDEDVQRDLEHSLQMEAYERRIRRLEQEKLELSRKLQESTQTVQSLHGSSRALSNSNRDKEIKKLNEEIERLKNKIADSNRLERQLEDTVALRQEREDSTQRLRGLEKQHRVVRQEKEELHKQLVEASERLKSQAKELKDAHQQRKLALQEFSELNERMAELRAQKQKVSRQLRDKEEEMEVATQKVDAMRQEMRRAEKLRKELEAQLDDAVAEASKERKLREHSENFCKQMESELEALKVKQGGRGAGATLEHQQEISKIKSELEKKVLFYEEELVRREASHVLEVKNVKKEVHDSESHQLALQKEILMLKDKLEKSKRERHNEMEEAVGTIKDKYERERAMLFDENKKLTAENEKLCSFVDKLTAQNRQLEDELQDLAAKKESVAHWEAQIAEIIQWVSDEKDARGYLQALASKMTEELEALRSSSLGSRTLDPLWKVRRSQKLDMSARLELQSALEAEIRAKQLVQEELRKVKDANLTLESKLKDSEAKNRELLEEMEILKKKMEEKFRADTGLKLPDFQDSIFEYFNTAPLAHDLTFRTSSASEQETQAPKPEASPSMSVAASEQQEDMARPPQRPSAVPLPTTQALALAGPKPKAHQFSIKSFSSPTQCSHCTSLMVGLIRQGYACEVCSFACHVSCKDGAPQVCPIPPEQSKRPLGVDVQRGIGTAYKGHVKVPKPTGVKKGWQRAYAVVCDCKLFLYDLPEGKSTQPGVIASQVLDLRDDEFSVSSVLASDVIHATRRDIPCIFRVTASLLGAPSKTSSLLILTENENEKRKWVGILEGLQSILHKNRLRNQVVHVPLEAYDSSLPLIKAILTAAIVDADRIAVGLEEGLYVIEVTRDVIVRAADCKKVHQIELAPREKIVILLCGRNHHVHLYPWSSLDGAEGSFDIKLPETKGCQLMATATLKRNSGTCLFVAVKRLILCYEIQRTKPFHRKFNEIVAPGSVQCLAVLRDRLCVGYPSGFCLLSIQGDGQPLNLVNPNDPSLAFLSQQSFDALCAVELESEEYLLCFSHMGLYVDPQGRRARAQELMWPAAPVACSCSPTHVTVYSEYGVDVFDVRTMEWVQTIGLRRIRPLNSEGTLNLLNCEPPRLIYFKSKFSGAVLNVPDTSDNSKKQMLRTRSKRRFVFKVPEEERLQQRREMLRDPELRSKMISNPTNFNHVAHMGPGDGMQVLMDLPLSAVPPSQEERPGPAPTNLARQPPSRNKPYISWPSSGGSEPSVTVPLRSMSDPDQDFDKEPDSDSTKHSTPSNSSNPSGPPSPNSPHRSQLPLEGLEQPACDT

As to FAKLAARLYRKALARQLGVAA [MMI-0300], the “% activity” value is given as 147% in the test with GRK6(h); 83% with MRCKβ(h); 57% with PKBα(h); 53% in the test with NEK11(h); 73% with EphA1(h); 167% with ULK3(h). The “% activity” value with MELK(h) was found to be 16%; with Abl(h), 69%; with Pim-3(h) it was 80%.

Regarding “HRRIKAWLKKIKALARQLGVAA (Mammal) [MMI-0500]”, the “% activity” value is 174% with GRK6(h); -10% in the test with MRCKβ(h); 30% with PKBα(h); 2% with NEK11(h); 40% with EphA1(h); 177% with ULK3(h). Besides, the results for the “% activity” value with MELK(h), with Abl(h) and with Pim-3(h) were 0%, 16% and 37%, respectively.

As to KAFAKLAARLYRKALARQLGVAA [MMI-0400], the “% activity” value is 141% with GRK6(h); 71% with MRCKβ(h); 67% with PKBα(h); 33% in the test with NEK11(h); 61% with EphA1(h); 147% with ULK3(h). Moreover, the “% activity” value is 17% with MELK(h), 84% with Abl(h) and 80% with Pim-3(h).

Take YARAAARQARAKALARQLGVAA [MMI-0100]: the “% activity” value is recorded as 131% at GRK6(h), 142% on ULK3(h) and 74% on MELK(h).

For the sequence “YARAAARQARAKALNRQLGVA (Mammal) [MMI-0200]”, the “% activity” value with GRK6(h) is recorded as 132%; with PKBα(h), 110%; with NEK11(h), 95%; with ULK3(h) it was 164%; with MELK(h), 59%; in the test with Pim-3(h), 94%.
